Laboratory results: paper PMC12501226

Biological target: Recombinant SARS-CoV-1 spike protein 2P (residues 12-1193) (SARS-CoV-1) (UniProt P59594)
Assay: SPR

ACE2 monomer (human extracellular ACE2 domain, residues 18-615, cut from ACE2-TEV-Fc) (from UniProt Q9BYF1 18-615) (domain or fragment)
Kd: 71 nM
koff: 0.0016 s⁻¹
kon: 170000 M⁻¹ s⁻¹
